Results reported in patent US20090148447A1 (TRUBION PHARMACEUTICALS, published 2009).

T1: CD20 (UniProt P11836 1-297, limits assumed)
T1 construct: whole, on cells; also called CD20 on Wil2-S cells
T1 sequence (looked up): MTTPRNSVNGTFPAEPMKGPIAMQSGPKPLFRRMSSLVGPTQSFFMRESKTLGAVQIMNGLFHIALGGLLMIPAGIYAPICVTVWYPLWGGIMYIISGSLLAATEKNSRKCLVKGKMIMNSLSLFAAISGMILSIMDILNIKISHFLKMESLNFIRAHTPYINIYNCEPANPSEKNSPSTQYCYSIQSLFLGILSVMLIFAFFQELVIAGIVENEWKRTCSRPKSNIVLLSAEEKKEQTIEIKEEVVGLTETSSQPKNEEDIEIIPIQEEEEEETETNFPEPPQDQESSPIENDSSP

B1: 2Lm20-4HL17 (an HL anti-CD20 SMIP with a 17-amino-acid gly4ser linker) (Fc fusion)
chain: QVQLVQSGAESKKPGASVKVSCKASGYTFTSYNMHWVRQAPGQGLEWMGAIYPGNGDTSYNQKFKGRVTMTRDTSTSTVYMELSSLRSEDTAVYYCARSYYSNSYWYFDLWGRGTLVTVSSGGGGSGGGGSGGGGSASEIVLTQSPATLSLSPGERATLSCRASSSVSYIVWYQQKPGQAPRLLIYAPSNLASGIPARFSGSGSGTDFTLTISSLEPEDFAVYYCQQWSFNPPTFGQGTKVEIK
notes: also called DNE079; not shown: The hinge and CH2CH3 of this SMIP are not specified
B2: 2Lm20-4HL12 (an HL anti-CD20 SMIP with a 12-amino-acid gly4ser linker) (Fc fusion)
chain: QVQLVQSGAESKKPGASVKVSCKASGYTFTSYNMHWVRQAPGQGLEWMGAIYPGNGDTSYNQKFKGRVTMTRDTSTSTVYMELSSLRSEDTAVYYCARSYYSNSYWYFDLWGRGTLVTVSSGGGGSGGGGSASEIVLTQSPATLSLSPGERATLSCRASSSVSYIVWYQQKPGQAPRLLIYAPSNLASGIPARFSGSGSGTDFTLTISSLEPEDFAVYYCQQWSFNPPTFGQGTKVEIK
notes: also called DNE078; not shown: The hinge and CH2CH3 of this SMIP are not specified

Assays:
[1] = target: low-affinity CD16 (CD16lo); experiment: flow cytometry, CD16lo bound to sample on Ramos cells, goat anti-mouse-PE; sample 0.033 ug/ml
[2] = target: low-affinity CD16 (CD16lo); experiment: flow cytometry, CD16lo bound to sample on Ramos cells, goat anti-mouse-PE; sample 0.3 ug/ml
[3] = target: low-affinity CD16 (CD16lo); experiment: flow cytometry, CD16lo bound to sample on Ramos cells, goat anti-mouse-PE; sample 0.89 ug/ml
[4] = target: low-affinity CD16 (CD16lo); experiment: flow cytometry, CD16lo bound to sample on Ramos cells, goat anti-mouse-PE; sample 0.011 ug/ml
[5] = target: low-affinity CD16 (CD16lo); experiment: flow cytometry, CD16lo bound to sample on Ramos cells, goat anti-mouse-PE; sample 8 ug/ml
[6] = target: low-affinity CD16 (CD16lo); experiment: flow cytometry, CD16lo bound to sample on Ramos cells, goat anti-mouse-PE; sample 0.1 ug/ml
[7] = target: low-affinity CD16 (CD16lo); experiment: flow cytometry, CD16lo bound to sample on Ramos cells, goat anti-mouse-PE; sample 24 ug/ml
[8] = target: low-affinity CD16 (CD16lo); experiment: flow cytometry, CD16lo bound to sample on Ramos cells, goat anti-mouse-PE; sample 2.67 ug/ml
CD20 = target: T1, CD20; experiment: flow cytometry on Wil2-S B-cells, PE goat anti-human IgG
Method: For the Wil2-S B-cell binding study, 100 ug/ml of PIMS was used. […] Binding was detected using a goat anti-human IgG (gamma specific) conjugated to phycoerythrin (PE) (Jackson Immunoresearch # 109-116-098) at 1:100 dilution in FACS buffer. Results were analyzed by one-color flow cytometry on a FACsCalibur using CellQuest software. In addition to assessing the binding of anti-CD20 PIMS to WIL2-S cells, the binding of anti-CD20 SMIPs to Wil2-S cells expressing CD20 on their surface was also assessed.

Sequence of low-affinity CD16 (CD16lo) (P08637 17-208): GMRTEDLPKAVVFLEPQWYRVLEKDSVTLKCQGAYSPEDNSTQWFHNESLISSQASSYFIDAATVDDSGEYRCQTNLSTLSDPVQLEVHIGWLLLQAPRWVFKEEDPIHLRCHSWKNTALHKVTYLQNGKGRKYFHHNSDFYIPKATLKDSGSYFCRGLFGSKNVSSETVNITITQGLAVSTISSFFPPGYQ

Molecule	Geo MFI [1]	Geo MFI [2]	Geo MFI [3]	Geo MFI [4]	Geo MFI [5]	Geo MFI [6]	Geo MFI [7]	Geo MFI [8]	binding result (CD20)
TRU-016 (an anti-CD37 SMIP) (Fc fusion)	21.8	143	214	7.41	228	57.5	158	229	–
B1	–	–	–	–	–	–	–	–	binds
B2	–	–	–	–	–	–	–	–	binds
